The target in this experiment is T1, MBP-KLHL15-His (human, UniProt Q96M94 1-604).
T1 construct: KLHL15, human; gene amplified from the pCMV6-KLHL15 vector and subcloned into the pFB-MBP-fusion plasmid; In the pull-downs MBP was kept (coupled to amylose beads); MBP was cleaved only for the protein purified further; also called recombinant MBP-KLHL15; recombinant KLHL15 purified from insect cells; not shown: MBP, N-terminal, kept
T1 sequence (looked up): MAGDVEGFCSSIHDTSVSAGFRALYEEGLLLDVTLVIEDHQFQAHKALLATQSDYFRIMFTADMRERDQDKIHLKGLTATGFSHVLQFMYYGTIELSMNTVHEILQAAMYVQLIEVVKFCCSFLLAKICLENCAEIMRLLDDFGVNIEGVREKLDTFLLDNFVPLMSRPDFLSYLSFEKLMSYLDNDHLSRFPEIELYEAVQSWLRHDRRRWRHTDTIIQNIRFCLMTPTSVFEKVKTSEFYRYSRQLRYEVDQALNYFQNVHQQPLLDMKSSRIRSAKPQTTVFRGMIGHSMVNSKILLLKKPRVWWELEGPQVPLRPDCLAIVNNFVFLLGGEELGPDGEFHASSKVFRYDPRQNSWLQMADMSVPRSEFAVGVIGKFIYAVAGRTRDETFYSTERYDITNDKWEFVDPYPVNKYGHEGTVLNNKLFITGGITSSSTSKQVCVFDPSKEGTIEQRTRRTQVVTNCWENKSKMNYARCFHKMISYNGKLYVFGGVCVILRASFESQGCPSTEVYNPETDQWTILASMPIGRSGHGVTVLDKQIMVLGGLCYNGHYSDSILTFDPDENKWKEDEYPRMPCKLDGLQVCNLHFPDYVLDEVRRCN
Description: pull-down; competition: CtIP 15-mer peptide added in the indicated amounts to MBP-KLHL15 on amylose beads with HEK293T lysate. To be noted: both partners purified.

Where no end group is shown, it is not given here.

B1: biotinylated 15-mer peptide encompassing CtIP amino acid residues 830–844 (peptide, UniProt Q99708 830-844, looked up)
peptide: KKLASCSRHRFRYIP
modifications: also: biotinylated (position not given here)
notes: CtIP, human, residues 830-844 in the CTD; also called CtIP peptide; CtIP 15-mer peptide; source: synthetic peptide, bought: Bachem AG
As for B1, the binding result is “binds”.

The values are drawn from publication PMC5007465, “Cullin3-KLHL15 ubiquitin ligase mediates CtIP protein turnover to fine-tune DNA-end resection” (Nature Communications, 2016).
